PMC5477170, “Biochemical characterization of an enantioselective esterase from Brevundimonas sp. LY-2” (Microbial Cell Factories, 2017)

How the values were obtained:
[1] = system: CCOC(=O)C(C)OC(=O)c1cc(Oc2ccc(C(F)(F)F)cc2Cl)ccc1[N+](=O)[O-]; assay: purified protein; settings: 50 mM sodium phosphate, pH 7.0, 40 °C
[2] = system: T1, CCCCCCCC(=O)Oc1ccc([N+](=O)[O-])cc1; assay: p-nitrophenyl ester hydrolysis, Lineweaver-Burk; assay type: biochemical, Brevundimonas sp. LY-2; settings: pH and temperature not stated for this assay
T1 construct: signal peptide (residues 1-28) removed; C-terminal His-tag, pET-29a(+); E. coli BL21(DE3); full ORF 306 aa; predicted 29,451 Da, SDS-PAGE ~30 kDa; gel filtration 62 kDa, dimer; N-terminus from primer (M)ATAEP
Text: (§1) p-nitrophenyl ester hydrolysis, Lineweaver-Burk on LacH

[3] = system: T2, CCCCCC(=O)Oc1ccc([N+](=O)[O-])cc1; assay: p-nitrophenyl ester hydrolysis, Lineweaver-Burk; assay type: biochemical, Brevundimonas sp. LY-2; settings: pH and temperature not stated for this assay
T2 construct: signal peptide (residues 1-28) removed; C-terminal His-tag, pET-29a(+); E. coli BL21(DE3); full ORF 306 aa; predicted 29,451 Da, SDS-PAGE ~30 kDa; gel filtration 62 kDa, dimer; N-terminus from primer (M)ATAEP
Text: as §1

[4] = system: T3, CC(=O)Oc1ccc([N+](=O)[O-])cc1; assay: p-nitrophenyl ester hydrolysis, Lineweaver-Burk; assay type: biochemical, Brevundimonas sp. LY-2; settings: pH and temperature not stated for this assay
T3 construct: signal peptide (residues 1-28) removed; C-terminal His-tag, pET-29a(+); E. coli BL21(DE3); full ORF 306 aa; predicted 29,451 Da, SDS-PAGE ~30 kDa; gel filtration 62 kDa, dimer; N-terminus from primer (M)ATAEP
Text: as §1

[5] = system: T4, CCCC(=O)Oc1ccc([N+](=O)[O-])cc1; assay: p-nitrophenyl ester hydrolysis, Lineweaver-Burk; assay type: biochemical, Brevundimonas sp. LY-2; settings: pH and temperature not stated for this assay
T4 construct: signal peptide (residues 1-28) removed; C-terminal His-tag, pET-29a(+); E. coli BL21(DE3); full ORF 306 aa; predicted 29,451 Da, SDS-PAGE ~30 kDa; gel filtration 62 kDa, dimer; N-terminus from primer (M)ATAEP
Text: as §1

In the case of LacH (Brevundimonas sp. LY-2), the Km [1] is reported as 67 ± 2 µM, the kcat [1] is reported as 0.87 ± 0.09 s⁻¹ and the kcat/Km [1] is reported as 12900 M⁻¹ s⁻¹. It also gave a Km [2] of 335 ± 16 µM, a kcat [2] of 0.767 ± 0.06 s⁻¹ and a kcat/Km [2] of 2290 M⁻¹ s⁻¹. For the same substance, the Km [3] was 208 ± 12 µM, the kcat [3] was 3.47 ± 0.13 s⁻¹ and the kcat/Km [3] was 16700 M⁻¹ s⁻¹. For the same substance, the Km [4] was 147 ± 8 µM, the kcat [4] was 8.39 ± 0.28 s⁻¹ and the kcat/Km [4] was 50100 M⁻¹ s⁻¹. It also gave a Km [5] of 185 ± 9 µM, a kcat [5] of 7.48 ± 0.45 s⁻¹ and a kcat/Km [5] of 40400 M⁻¹ s⁻¹.
